Results from the supplement of paper PMC9170038.

Tested on: MS2 coat protein
Experiment: apparent KD of MS2 coat protein; higher = weaker reporter binding
Settings: Eterna round: R107; input ligand: theophylline 20 uM
Description: (§1)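 RNA-MaP round R107: designed RNA switches with theophylline, tryptophan, arginine or FMN aptamers are transcribed on-chip within common flanks. They are titrated with SNAP-549-labelled MS2 coat protein in RNA-MaP buffer (100 mM Tris pH 7.5, 80 mM KCl, 4 mM MgCl2), without ligand or with the indicated ligand. Median apparent KD per design.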

| Sequence | apparent KD of MS2 coat protein [µM] |
| --- | --- |
| UUUGAUAGAACAGAUACCAGCGUGUUAUAAAACAUGAGGAUCACCCAUGUAGUGAUCAAGCGCCCUUGGCAGCUGGUUUGUUAGG [7.I] | 0.122 |
| GGCUAUACUACGGCCGCCACUGAACAUGAGGAUCACCCAUGUAAUGUUCAGAUUUUUUUUUUUUACAGGACCGGGUAGAAUUGCC [Tryptophan B 3] | 0.22 |
| GUCCUCAGCCGAAGGAGCGCUAGAAGAUGACAUGAGGAUCACCCAUGUGUGUGAUGUGGCUAGCAGGUAGGUCGCGGAGAGGAUU [Exclusion - Arginine B (Freestyle 16)] | 0.0371 |
| GGUGGCGUGACGGAUACCAGCCACCGCCGCAAGGCAACAUGAGGAUCACCCAUGUUGGGUGGCCCUUGGCAGCUGUCGUGCGGCG [#1 Same State - Theophylline B Attempt #22 (HarryS)] | 0.151 |

Same assay, conditions: Eterna round: R107; input ligand: theophylline 2 mM

| Sequence | apparent KD of MS2 coat protein [µM] |
| --- | --- |
| UGACAUGAGGAUCACCCAUGUAUAACUGAAGGAGCGUCCAUAAGGACAGGUAGGUCGCGGAAUGAACAGAGUGCACGACAUGUUU [Arg A SS t1] | 0.0143 |
| UUAUGAUGUUCCGAUACCAGCCAUGUAGUUCUAACUUAACAUGAGGAUCACCCAUGUACCGGCCCUUGGCAGCGGAUGUGGAUUA [#22Same State - Theophylline B] | 0.0148 |
| AACAUGAGCACGGCCGCCACUCCAUGAACAUGAGGAUCACCCAUACACAUGAGGAUCACCCAUGUGAGGACCGGGUGUCCAUGUG [Exclusion Tryptophan B 2] | 0.0165 |
| UCAGAUGAGGCGGCCGCCACUCGCGGAUAACGAUAGAUUAACAUGAGGAUCACCCAUGUGUCAUGGAGGACCGGGCCCAUGACAU [kjmullin] | 0.0351 |
| AUAUAUACAUGAGGAUCACCCAUGUUAUUUCGAGGACCGGUACGGCCGCCACUCGAUAGAGUAGAAGUAAAUUUUGUUACAUGUA [JR_SSTryptoA_Sub010] | 0.0108 |
| UUAAUUAUAUAUUAUUUAAUAUUUACAGAAGGAGCGUGAUAAAACACAGGUAGGUCGCUGAAGGGAACAUGAGGAUCACCCAUGU [AstrosSSArgA#20] | 0.0601 |
| AGAGUCUAGUCGGCCGCCACUCAUGUCCAAUGGACAUGAGGAUCACCCAUGUACCAAAGGUACAUGAGGACCGGGACUGGACUCA [Omei Tryp B SS C v4] | 0.0833 |
| UUAAUCUAUGAAGAAAACUUUAUAGCAGAAGGAGCGUGAUAAAACACAGGUAGGUCGCUGAAGGGAACAUGAGGAUCACCCAUGU [AstrosSSArgA#19] | 0.0311 |
| GGACUAACCAGAAGGAGCGGCACAAAGCAGAAACUGCAUCCUCCGCACGAGGAUCACCCGUGUCAGGUAGGUCGCUGGUUAGUCG [ArgBX 28] | 0.0695 |
| GCCUCCAGCCGAAGGAGCGCUAGAAGGUGACAUGAGGAUCACCCAUGUGUGUGAUGUGGCUAGCAGGUAGGUCGCGGAGGAGGUU [Exclusion - Arginine B (Freestyle 20)] | 0.12 |
| GGCUAUACUACGGCCGCCACUGAACAUGAGGAUCACCCAUGUAAUGUUCAGAUUUUUUUUUUUUACAGGACCGGGUAGAAUUGCC [Tryptophan B 3] | 0.299 |
| GUCCUCAGCCGAAGGAGCGCUAGAAGAUGACAUGAGGAUCACCCAUGUGUGUGAUGUGGCUAGCAGGUAGGUCGCGGAGAGGAUU [Exclusion - Arginine B (Freestyle 16)] | 0.028 |
| GGUGGCGUGACGGAUACCAGCCACCGCCGCAAGGCAACAUGAGGAUCACCCAUGUUGGGUGGCCCUUGGCAGCUGUCGUGCGGCG [#1 Same State - Theophylline B Attempt #22 (HarryS)] | 0.159 |

Same assay, conditions: Eterna round: R107; input ligand: tryptophan 2.4 mM

| Sequence | apparent KD of MS2 coat protein [µM] |
| --- | --- |
| CCGGCGCGAUUAUGGGUUUGCUUUUACGAUACCAGCCGCGUUCCGGGCCCUUGGCAGCGUGUAACAUGAGGAUCACCCAUGUUCA [theeternabot_exclusion_MS2_Theo_A_37] | 0.0101 |
| UGACAUGAGGAUCACCCAUGUAUAACUGAAGGAGCGUCCAUAAGGACAGGUAGGUCGCGGAAUGAACAGAGUGCACGACAUGUUU [Arg A SS t1] | 0.0142 |
| UUAUGAUGUUCCGAUACCAGCCAUGUAGUUCUAACUUAACAUGAGGAUCACCCAUGUACCGGCCCUUGGCAGCGGAUGUGGAUUA [#22Same State - Theophylline B] | 0.0237 |
| UAAAACAUGAGGAUCACCCAUGUAAUUGAUACCAGAGUGAUGAUCCUCCCUUGGCAGCAAAACGCUGAUUGAUUACAAUCAGCGA [Mat - Same State Theophlline A - Mod of Eli - D24] | 0.0425 |
| AAUCGCCUGGGUCGCAUCCUUGCUCCGGAUACCAGUCAAUAGUUGGACCCUUGGCAGCCGUAGACAUGAGGAUCACCCAUGUAUA [theeternabot_exclusion_MS2_Theo_A_42] | 0.0559 |
| UUAAUUAUAUAUUAUUUAAUAUUUACAGAAGGAGCGUGAUAAAACACAGGUAGGUCGCUGAAGGGAACAUGAGGAUCACCCAUGU [AstrosSSArgA#20] | 0.0389 |
| UUAAUCUAUGAAGAAAACUUUAUAGCAGAAGGAGCGUGAUAAAACACAGGUAGGUCGCUGAAGGGAACAUGAGGAUCACCCAUGU [AstrosSSArgA#19] | 0.0265 |
| UAUAUAUAGAUGGAUACCAGCAGAGAAAACGUUUAUCCUAACAUGAGGAUCACCCAUGUAUGCCCUUGGCAGCUGUUUAUAUAUA [8.I] | 0.0226 |
| GGACUAACCAGAAGGAGCGGCACAAAGCAGAAACUGCAUCCUCCGCACGAGGAUCACCCGUGUCAGGUAGGUCGCUGGUUAGUCG [ArgBX 28] | 0.062 |
| ACGUCAUGGAGAACGUGACGACUUAUCGAUACCAGCGAUUGAGAGCGCCCUUGGCAGCGAACAUGAGGAUCACCCAUGUCAAGGG [Same State - Theophylline A] | 0.0294 |
| GCCUCCAGCCGAAGGAGCGCUAGAAGGUGACAUGAGGAUCACCCAUGUGUGUGAUGUGGCUAGCAGGUAGGUCGCGGAGGAGGUU [Exclusion - Arginine B (Freestyle 20)] | 0.0898 |
| UUUGAUAGAACAGAUACCAGCGUGUUAUAAAACAUGAGGAUCACCCAUGUAGUGAUCAAGCGCCCUUGGCAGCUGGUUUGUUAGG [7.I] | 0.161 |
| GUCCUCAGCCGAAGGAGCGCUAGAAGAUGACAUGAGGAUCACCCAUGUGUGUGAUGUGGCUAGCAGGUAGGUCGCGGAGAGGAUU [Exclusion - Arginine B (Freestyle 16)] | 0.0206 |
| GGUGGCGUGACGGAUACCAGCCACCGCCGCAAGGCAACAUGAGGAUCACCCAUGUUGGGUGGCCCUUGGCAGCUGUCGUGCGGCG [#1 Same State - Theophylline B Attempt #22 (HarryS)] | 0.0502 |

Tested on: K4 kissing-loop RNA reporter;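 further: bound reporter read as fluorescence of individual clusters on recovered sequencing chips by microscopy, with normalized cluster intensities fitted with a binding model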
Experiment: apparent KD of K4 kissing-loop reporter; higher = weaker reporter binding
Settings: Eterna round: R107; input ligand: FMN 200 uM
Description: as §1, with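 “a labelled K4 kissing-loop RNA reporter” for “SNAP-549-labelled MS2 coat protein”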

| Sequence | apparent KD of K4 kissing-loop reporter [µM] |
| --- | --- |
| CCUAUCUCGUACGAUACCAGACUAUGAUCUUUGAUCAAUGCCAUCACCGAGUGAUGUUCGGUCCCUUGGCAGCGUAUGAGAUGGG [#12 K4 Theophylline B Exclusion] | 0.179 |
| GGCACUUUUGGUAGGAACCAUCUACCUCUAUAGGAUAUGCCGAAAGGCAGAAGGAUAGACCUACAGAGUGAUGUUCUGCGUGCCU | 0.573 |
| AAAAUAAUCCAGUGAUGUUGGUGUCCAGAUACCAGCGACGAAAGUCGCCCUUGGCAGCUGUGGACGUACAAAAUAAGUACGUCCU | 0.476 |
| AAAACUAUCAGAAGGAGCGUGGAAUAUUCAUCUAUAUUUAAUACGAGUGAUGUUCGUAAUUCACAGGUAGGUCGCUGAUCAAUAA [JR_ExcArginiB_Sub007] | 0.214 |
| UUGAUAUGAUAGUAUCCUGUUUGAUAAAGGCAGGAUAUCGAAAAUUCGAGAAGGGCCAUUAUAUGCAGUGAUGUUGCAAAUAAGU [Exclusion FMN A Gf 24] | 0.0768 |
| GCCGUACGCAUGGAUACCAGUCUACAUCGCAGUGAUGUUGCGUAGUUCAGAUUAACUGCCGACCCUUGGCAGCCAUGCGUACGGC | 0.134 |
| AAAUUCUUUUUUUUAUUUAACUUUUCAGAAGGAGCGUGGUAGUACACAGGUAGGUCGCUGAAUAUAAGACUAGUGAUGUUAGUUA [JR_SSArginiA_Sub009] | 0.172 |
| GCAGGACGAGGAGGAGGAUGAAUUACUGAAGGAGCGCAUAUUGUUGCAGGUAGGUCGCGGUAAACAAGUAUAGUGAUGUUAUAUC [SSArgA.O] | 0.77 |
| UGACUGGAUGGAAGGAGCGCUAAACUCCUAGUGAUGUUAGGGAAACGAGACAAAGUCUCGAAGCAGGUAGGUCGCCAUCUAGUCU [FiskerMod 14 - Jieux - Same State - Arginine B] | 0.176 |
| AGUACAAUGGCGGCCGCCACUCAACGCAGAUCAAAGAUCUGCAUUCACUCAGUGAUGUUGAGUGAGAGGACCGGGCCUUUGUACA [Omei KL Tryp B SS B v1] | 0.701 |
| AACUCUCACUGGAGUGAUGUUCUGGAAAACCGAGGACCGGUACGGCCGCCACUCGGAAAUGAGAGAGUCCUACGAAAAGUAGGAC [Omei inspired 1] | 0.191 |
